{"source": "paper PMC10773654", "biological_target": "human Interleukin-1 Receptor Associated Kinase 1 (IRAK1) protein, nanoluciferase BiMC construct (human) (UniProt P51617)", "sequence (P51617 whole entry)": "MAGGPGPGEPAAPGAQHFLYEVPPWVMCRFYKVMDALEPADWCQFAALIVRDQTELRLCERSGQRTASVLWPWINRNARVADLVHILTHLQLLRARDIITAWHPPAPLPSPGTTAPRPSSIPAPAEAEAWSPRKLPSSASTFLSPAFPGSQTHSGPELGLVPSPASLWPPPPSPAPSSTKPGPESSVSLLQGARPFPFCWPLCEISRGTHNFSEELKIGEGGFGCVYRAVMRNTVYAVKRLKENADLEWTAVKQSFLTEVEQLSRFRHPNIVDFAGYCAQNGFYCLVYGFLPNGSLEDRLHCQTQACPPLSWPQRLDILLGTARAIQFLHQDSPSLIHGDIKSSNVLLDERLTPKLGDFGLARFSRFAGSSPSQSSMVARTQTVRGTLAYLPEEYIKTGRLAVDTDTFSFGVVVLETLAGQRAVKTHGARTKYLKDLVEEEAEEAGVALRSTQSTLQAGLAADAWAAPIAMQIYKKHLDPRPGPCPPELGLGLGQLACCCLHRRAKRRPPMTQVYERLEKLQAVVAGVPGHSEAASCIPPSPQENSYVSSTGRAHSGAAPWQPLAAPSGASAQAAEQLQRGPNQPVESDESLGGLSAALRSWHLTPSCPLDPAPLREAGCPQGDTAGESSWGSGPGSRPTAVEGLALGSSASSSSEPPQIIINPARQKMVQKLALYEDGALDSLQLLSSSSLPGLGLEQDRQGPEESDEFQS", "assay": "split reporter"}
{"substance": "SINV CP truncation mutant ΔRI (RII and Protease domains) (domain or fragment)", "values": [{"measurement": "fold BiMC of nanoluciferase relative to the full-length SINV CP protein", "value": 2, "unit": "fold"}]}
